Assay [1] concerns the target T1, PleC PAS AB-HK (Caulobacter crescentus).
T1 sequence (P37894 whole entry, looked up): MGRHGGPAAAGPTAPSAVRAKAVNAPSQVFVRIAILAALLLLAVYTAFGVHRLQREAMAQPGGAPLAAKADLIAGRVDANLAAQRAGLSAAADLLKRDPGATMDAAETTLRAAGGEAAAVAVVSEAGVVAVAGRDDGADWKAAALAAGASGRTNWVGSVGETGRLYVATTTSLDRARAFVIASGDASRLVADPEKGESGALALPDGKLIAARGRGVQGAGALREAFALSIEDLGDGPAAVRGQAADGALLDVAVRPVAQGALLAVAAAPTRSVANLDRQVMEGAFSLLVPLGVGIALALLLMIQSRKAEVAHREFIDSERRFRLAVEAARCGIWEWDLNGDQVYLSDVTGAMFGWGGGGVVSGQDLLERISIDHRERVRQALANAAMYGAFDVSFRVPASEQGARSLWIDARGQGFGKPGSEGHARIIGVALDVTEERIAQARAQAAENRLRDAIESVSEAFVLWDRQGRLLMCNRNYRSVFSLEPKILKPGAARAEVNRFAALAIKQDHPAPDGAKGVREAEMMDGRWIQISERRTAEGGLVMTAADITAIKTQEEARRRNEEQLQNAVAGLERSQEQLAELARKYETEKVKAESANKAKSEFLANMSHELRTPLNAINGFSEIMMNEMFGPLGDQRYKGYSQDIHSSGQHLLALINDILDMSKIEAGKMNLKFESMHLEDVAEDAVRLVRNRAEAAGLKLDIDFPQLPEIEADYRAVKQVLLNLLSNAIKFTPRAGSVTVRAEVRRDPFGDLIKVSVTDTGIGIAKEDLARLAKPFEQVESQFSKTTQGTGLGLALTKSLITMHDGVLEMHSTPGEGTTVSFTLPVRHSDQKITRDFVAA

For assay [2], the target named is PleC-CcaS chimeric histidine kinase (chimera AB-1) (Caulobacter crescentus | not stated).
Assay [3] shares this target. The source holds these as a separate data set.

B1: PodJ(250–635) (domain or fragment)
chain: LGAVETANPATGVQEGLDSLAATLTQKMEAARLEMAAKLRESADGRFDRMERKLGEMAAHVQAAEQRSAQAIERMGREIVGVADAFNRRVHAAESRNASAIEQVGGEVARIAASVEHKLNRADSVQAQALEKLGGEIARITEKLAERIGSAERRNALAIDDVGEQVARVTERLNQRHERSSQELVDRIRQSEERTLRMLEEAREKIDSRLSEAQRKLEAAPPSPPPAQAPAPVATAQRPVPPAASPFEDNYFSQAASFSTSEDEADAFDAPPAPARSFEVAEFPAAEPEEPAFAHDDYAIADGFEPESPRYEVEPEVSDFAPAEPSRPMSTRDIIEQARAAARAAAASEGKGGKAKSAKKEKASKASGSLFSGFGGFSTKKSKARL
Turning to B1, in assay [1], the ADP production IC50 (coupled enzyme assay of PleC PAS AB-HK) relative to that of PodJ(1–635) amounted to 2 fold.

B2: PodJ(250–635) expressed in E. coli (domain or fragment)
chain: LGAVETANPATGVQEGLDSLAATLTQKMEAARLEMAAKLRESADGRFDRMERKLGEMAAHVQAAEQRSAQAIERMGREIVGVADAFNRRVHAAESRNASAIEQVGGEVARIAASVEHKLNRADSVQAQALEKLGGEIARITEKLAERIGSAERRNALAIDDVGEQVARVTERLNQRHERSSQELVDRIRQSEERTLRMLEEAREKIDSRLSEAQRKLEAAPPSPPPAQAPAPVATAQRPVPPAASPFEDNYFSQAASFSTSEDEADAFDAPPAPARSFEVAEFPAAEPEEPAFAHDDYAIADGFEPESPRYEVEPEVSDFAPAEPSRPMSTRDIIEQARAAARAAAASEGKGGKAKSAKKEKASKASGSLFSGFGGFSTKKSKARL
In assay [2], B2 gave a mCherry expression from the cpcG2 promoter through PleC-CcaS and CcaR in E. coli of 3 fold.

B3: YFP-PodJ (full-length PodJL) (natural protein)
chain: MTAASPWSVKGIDPKAREVAKDLARRSGMTLGEWLNRMIIEGDGQTADPRLAGDDVPNRAYLEIVKDDAPPRIEIAEHPADEVGRVALALDRLTQRIEAAEGRNAAAITGIDHSVRDALTRLGASEREQIAVAARFEGAVDELKTEQARATERLRRIESEAAGPRSAEALRALEGALGKVAGHLYEGEARTREAIATLEAKLNQQSSGDPSALVEAVVARLGERLEAAETRTSDALRELGASFQALDQRLGAVETANPATGVQEGLDSLAATLTQKMEAARLEMAAKLRESADGRFDRMERKLGEMAAHVQAAEQRSAQAIERMGREIVGVADAFNRRVHAAESRNASAIEQVGGEVARIAASVEHKLNRADSVQAQALEKLGGEIARITEKLAERIGSAERRNALAIDDVGEQVARVTERLNQRHERSSQELVDRIRQSEERTLRMLEEAREKIDSRLSEAQRKLEAAPPSPPPAQAPAPVATAQRPVPPAASPFEDNYFSQAASFSTSEDEADAFDAPPAPARSFEVAEFPAAEPEEPAFAHDDYAIADGFEPESPRYEVEPEVSDFAPAEPSRPMSTRDIIEQARAAARAAAASEGKGGKAKSAKKEKASKASGSLFSGFGGFSTKKSKARLGATVTTALVVFAAAGALGAGVGGLLLLNTDDGNNSPSRVAQAIAGRKADVEVNGPEADTTPGAPRAAVALTTGKVVPAEVEAPAAPPTNEAKALFEDAVRKIESGDRSGVELLKRAANGGYPAAQFYLSKMYEGGKNGVKVDMAEARRWSERAANGGDPRAMHNLALYYFKGEGGPRNSTTAASWFRKAADMGLVDSQFNLAQLYESGLGVSQNPAEAYKWYVIAGRAGDSTARGRATALRSQLTAEAQQTADRSALAFRPQTQVQTASLSSAAPAAANANLGVAQRVLSQLGYYQGPRDGVSSPALRMAIAAYQRDQGLPPTGSVDAETLNRLSVYAR
In assay [3], B3 displayed a mCherry expression from the cpcG2 promoter through PleC-CcaS and CcaR in E. coli, relative to the empty vector control of 10 fold.

These data come from article PMC8980812.
